Source: patent publication US20020155571A1, “Triazine degrading enzymes” (priority 2000, published 2002)
Positions count from the first letter of the chain named.

Key:
Assay type in all cases: biochemical
[1] = Product formation by washed and induced cells expressing triazine hydrolase, substrate prometryn; details: 250 μM substrate, 20 ul washed and induced cells OD600 = 3 in 100 μl 10 mM NH3Acetate pH 6.8, 37° C.
[2] = Product formation by washed and induced cells expressing triazine hydrolase, substrate aminoatrazine; details: 250 μM substrate, 20 ul washed and induced cells in 100 μl NH3Acetate pH 6.8, 22° C.
[3] = Product formation by washed and induced cells expressing triazine hydrolase, substrate N-methylatrazine; details: 250 μM substrate, 20 ul washed and induced cells in 100 μl NH3Acetate pH 6.8, 22° C.
[4] = Product formation by washed and induced cells expressing triazine hydrolase, substrate propazine; details: 250 μM substrate, 20 ul washed and induced cells OD600 = 3 in 100 μl 10 mM NH3Acetate pH 6.8, 37° C.
[5] = Product formation by washed and induced cells expressing triazine hydrolase, substrate N-methylpropazine; details: 250 μM substrate, 20 ul washed and induced cells OD600 = 3 in 100 μl 10 mM NH3Acetate pH 6.8, 37° C.
[6] = Product formation by washed and induced cells expressing triazine hydrolase, substrate prometon; details: 250 μM substrate, 20 ul washed and induced cells OD600 = 3 in 100 μl 10 mM NH3Acetate pH 6.8, 37° C.
[7] = Product formation by washed and induced cells expressing triazine hydrolase, substrate aminopropazine; details: 250 μM substrate, 20 ul washed and induced cells OD600 = 3 in 100 μl 10 mM NH3Acetate pH 6.8, 37° C.
[8] = Product formation by washed and induced cells expressing triazine hydrolase, substrate atrazine; details: 250 μM substrate, 20 ul washed and induced cells in 100 μl NH3Acetate pH 6.8, 22° C.
[9] = Product formation by washed and induced cells expressing triazine hydrolase, substrate atratone; details: 250 μM substrate, 20 ul washed and induced cells in 100 μl NH3Acetate pH 6.8, 22° C.
[10] = Product formation by washed and induced cells expressing triazine hydrolase, substrate ametryn; details: 250 μM substrate, 20 ul washed and induced cells in 100 μl NH3Acetate pH 6.8, 22° C.
[11] = High throughput mass spectrometry screen of triazine hydrolase library against about 15 triazine derivatives; details: for Substrate Activity: ametryn: preferred substrates; for Substrate Activity: nme-atrazine: column lists substrates on which the library member shows preferred triazine hydrolase activity
[12] = Table 5, the value is the triazine substrate the library member (atzA-based variant) is active on, preferred members, not exclusive
[13] = substrate propazine, column indicates preferred embodiments, not exclusive
[14] = substrate(s) on which the triazine hydrolase library member shows activity, column indicates preferred embodiments and is not exclusive

B1: atzA: naturally occurring atrazine chlorohydrolase (atzA), GenBank #U55933 (protein, UniProt P72156 1-474, looked up)
Atrazine chlorohydrolase: MQTLSIQHGTLVTMDQYRRVLGDSWVHVQDGRIVALGVHAESVPPPADRVIDARGKVVLPGFINAHTHVNQILLRGGPSHGRQFYDWLFNVVYPGQKAMRPEDVAVAVRLYCAEAVRSGITTINENADSAIYPGNIEAAMAVYGEVGVRVVYARMFFDRMDGRIQGYVDALKARSPQVELCSIMEETAVAKDRITALSDQYHGTAGGRISVWPAPATTTAVTVEGMRWAQAFARDRAVMWTLHMAESDHDERIHGMSPAEYMECYGLLDERLQVAHCVYFDRKDVRLLHRHNVKVASQVVSNAYLGSGVAPVPEMVERGMAVGIGTDNGNSNDSVNMIGDMKFMAHIHRAVHRDADVLTPEKILEMATIDGARSLGMDHEIGSIETGKRADLILLDLRHPQTTPHHHLAATIVFQAYGNEVDTVLIDGNVVMENRRLSFLPPERELAFLEEAQSRATAILQRANMVANPAWRSL
[1]
  Product formation, substrate Prometryn: 0 nM/h
[2]
  Product formation, substrate Aminoatrazine: 0 nM/h
[3]
  Product formation, substrate NMeAtrazine: 0 nM/h
[4]
  Product formation, substrate Propazine: 26 nM/h
[5]
  Product formation, substrate NMePropazine: 0 nM/h
[6]
  Product formation, substrate Prometon: 0 nM/h
[7]
  Product formation, substrate Aminopropazine: 0 nM/h
[8]
  Product formation, substrate Atrazine: 58899 nM/h
[9]
  Product formation, substrate Atratone: 0 nM/h
[10]
  Product formation, substrate Ametryn: 0 nM/h

B2: 113 (protein)
chain: MQTLSIQHGTLVTMDQYRRVLGDSWVHVQDGRIVALGVHAESVPPPADRVIDARGKVVLPGFINAHTHVNQILLRGGPSHGRQFYDWLFNVLYPGQKAMRPEVAVAVRLYCAEAVRSGITTINEEADSAIYPGNIEAAMAVYGEVGVRVVYARMFFDRMDGRIQGYVDALKARSPQVELCSIMEETAVAKDRITALSDQYHGTAGGRISVWPAPATTTTVTVEGMRWAQAFARDRAVMWTLHMAESDHDERIIGGSPAEYMECYGLLDERLQVAHCVYFDRKDVRLLHRHNVKVASQVVSNAYLGSGVAPVPEMVERGMAVGIGTDNDNSCDSVNMIGDMKFMAHIHRAVHRDADVLTPEKILEMATIDGARSLGMDHEIGSIETGKRADLILLDLRHPQTTPHHHLAATIVFQAYGNEVDTVLIDGNVVMENRRLSFLPPERELAFLEEAQSRATAILQRANMVANPAWRSL
[11]; [12]
  Substrate Activity: atratone

B3: 117 (protein)
chain: B2 chain with G255W
[11]; [12]
  Substrate Activity: atratone

B4: 124 (protein)
chain: B2 chain with I253L, D328N, C331S
[11]; [12]
  Substrate Activity: atrazine

B5: 128 (protein)
chain: B2 chain with I253L, G255W, D328N, C331S
[11]; [12]
  Substrate Activity: atrazine

B6: 244 (protein)
chain: B2 chain with L92V, D328N, C331S
[11]; [13]
  Substrate Activity: propazine

B7: 248 (protein)
chain: B2 chain with L92V, G255W, D328N, C331S
[11]; [13]
  Substrate Activity: propazine

B8: 314 (protein)
chain: B2 chain with F84L, E125D, I253L, C331S
[11]; not exclusive
  Substrate Activity: ametryn: ametryn

B9: 318 (protein)
chain: B2 chain with F84L, E125D, I253L, G255W, C331S
[11]; not exclusive
  Substrate Activity: ametryn: ametryn

B10: 345 (protein)
chain: B2 chain with F84L, T217I, I253L
[11]; not exclusive
  Substrate Activity: nme-atrazine: nme-atrazine

B11: 349 (protein)
chain: B2 chain with F84L, T217I, I253L, G255W
[11]; not exclusive
  Substrate Activity: nme-atrazine: nme-atrazine

B12: 370 (protein)
chain: B2 chain with F84L, C331S
[11]; not exclusive
  Substrate Activity: ametryn: ametryn

B13: 382 (protein)
chain: B2 chain with F84L, I253L, G255W, C331S
[11]; not exclusive
  Substrate Activity: ametryn: ametryn

B14: 383 (protein)
chain: B2 chain with F84L, I253L, G255W, D328N
[11]; not exclusive
  Substrate Activity: ametryn: ametryn

B15: 466 (protein)
chain: B2 chain with F84L, L92V, T217I, C331S
[11]; [14]
  Substrate Activity: prometryn

B16: 482 (protein)
chain: B2 chain with F84L, L92V, T219P, C331S
[11]; [14]
  Substrate Activity: prometryn

B17: 498 (protein)
chain: B2 chain with F84L, L92V, C331S
[11]; [14]
  Substrate Activity: prometryn

B18: 502 (protein)
chain: B2 chain with F84L, L92V, G255W, C331S
[11]; [14]
  Substrate Activity: prometryn

B19: 49 (protein)
chain: B2 chain with E125D
[11]; [12]
  Substrate Activity: atratone

B20: 504 (protein)
chain: B2 chain with F84L, L92V, G255W, D328N, C331S
[11]; [14]
  Substrate Activity: propazine

B21: 508 (protein)
chain: B2 chain with F84L, L92V, I253L, D328N, C331S
[11]; [14]
  Substrate Activity: propazine

B22: 512 (protein)
chain: B2 chain with F84L, L92V, I253L, G255W, D328N, C331S
[11]; [14]
  Substrate Activity: propazine

B23: 53 (protein)
chain: B2 chain with E125D, G255W
[11]; [12]
  Substrate Activity: atratone

B24: 57 (protein)
chain: B2 chain with E125D, I253L
[11]; [12]
  Substrate Activity: atratone

B25: 61 (protein)
chain: B2 chain with E125D, I253L, G255W
[11]; [12]
  Substrate Activity: atratone
